Laboratory results from patent US20240417462A1.

Target: TIGIT on PHA-activated human peripheral blood mononuclear cells (PBMC) (human) (UniProt Q495A1)
Test: cell-based or functional assay

Chain of TIGIT on PHA-activated human peripheral blood mononuclear cells (PBMC) (human) (Q495A1 22-244): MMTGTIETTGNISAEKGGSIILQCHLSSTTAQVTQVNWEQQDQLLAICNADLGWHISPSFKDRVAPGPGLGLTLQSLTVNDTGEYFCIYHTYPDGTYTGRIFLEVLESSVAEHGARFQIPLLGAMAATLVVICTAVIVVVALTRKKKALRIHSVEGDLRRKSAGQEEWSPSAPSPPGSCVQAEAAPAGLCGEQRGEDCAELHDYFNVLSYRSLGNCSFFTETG

- IFNγ release, increase over no antibody: 16%
Substance: Tiragolumab (antibody)
